Experiments:
[1] = target: βAPP-C100 binding site on NGF-treated PC12 cells; test: competition with 35S-βAPP-C100 for binding to NGF-treated PC12 cells
[2] = target: βAPP-C100 binding site on NGF-treated PC12 cells; test: saturation binding of 35S-βAPP-C100 to NGF-treated PC12 cells, filtration, 4° C.
[3] = target: βAPP-C100 binding site on NGF-treated PC12 cells; test: inhibition of 35S-βAPP-C100 binding to NGF-treated PC12 cells by unlabeled βAPP-C100

IC50 [1]	times less potent than the native form [1]	Kd [2]	IC50 [3]	Substance
> 14 nM	> 20 times			Phe687-βAPP-C100 (from UniProt P05067-4) (ligand)
		0.81 nM	1.7 nM	flag-βAPP-C100 (from UniProt P05067-4) (ligand)

Source: patent US6083713
